Reference: paper doi:10.1101/2025.01.22.633148 (bioRxiv, 2025)

How the values were obtained:
[1] = biological target: Hsp70 nucleotide-binding domain (Hsp70NBD); assay: ITC
[2] = biological target: Human Rpn1, full-length, recombinant (human, UniProt Q13200 1-908); assay: ITC
Chain of Human Rpn1, full-length, recombinant (Q13200 whole entry): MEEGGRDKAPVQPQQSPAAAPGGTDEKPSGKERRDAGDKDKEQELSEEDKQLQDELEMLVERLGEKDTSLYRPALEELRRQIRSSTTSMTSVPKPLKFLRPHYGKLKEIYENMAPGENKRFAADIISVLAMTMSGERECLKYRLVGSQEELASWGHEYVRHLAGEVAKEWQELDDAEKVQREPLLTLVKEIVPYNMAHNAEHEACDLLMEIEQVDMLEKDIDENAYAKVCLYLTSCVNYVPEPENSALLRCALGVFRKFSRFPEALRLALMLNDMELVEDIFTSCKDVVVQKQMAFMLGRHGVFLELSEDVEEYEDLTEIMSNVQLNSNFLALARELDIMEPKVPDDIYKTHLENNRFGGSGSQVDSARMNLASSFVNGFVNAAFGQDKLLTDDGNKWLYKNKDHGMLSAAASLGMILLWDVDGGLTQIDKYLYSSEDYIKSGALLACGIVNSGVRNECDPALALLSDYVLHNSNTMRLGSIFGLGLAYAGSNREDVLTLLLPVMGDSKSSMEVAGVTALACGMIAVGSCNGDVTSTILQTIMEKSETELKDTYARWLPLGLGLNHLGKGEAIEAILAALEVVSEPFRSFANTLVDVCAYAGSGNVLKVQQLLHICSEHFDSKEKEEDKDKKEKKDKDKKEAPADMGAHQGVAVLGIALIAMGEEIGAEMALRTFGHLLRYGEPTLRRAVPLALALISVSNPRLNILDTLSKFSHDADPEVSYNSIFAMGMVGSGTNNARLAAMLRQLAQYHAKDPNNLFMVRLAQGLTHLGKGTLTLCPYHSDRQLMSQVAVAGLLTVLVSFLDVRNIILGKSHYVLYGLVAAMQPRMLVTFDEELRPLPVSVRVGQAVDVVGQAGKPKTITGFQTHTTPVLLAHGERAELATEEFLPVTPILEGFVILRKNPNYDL

B1: Bag1 (Bcl-2 associated anthanogene 1), full-length (natural protein)
chain: MNRSQEVTRDEESTRSEEVTREEMAAAGLTVTVTHSNEKHDLHVTSQQGSSEPVVQDLAQVVEEVIGVPQSFQKLIFKGKSLKEMETPLSALGIQDGCRVMLIGKKNSPQEEVELKKLKHLEKSVEKIADQLEELNKELTGIQQGFLPKDLQAEALCKLDRRVKATIEQFMKILEEIDTLILPENFKDSRLKRKGLVKKVQAFLAECDTVEQNICQETERLQSTNFALAE
Kd [1]: 50 nM | Kd [2]: ~500 nM
